Experimental data published in patent US20130004416A1 (published 2013).

T1: human IL-12 (human, UniProt P29459 23-219; P29460 23-328)
T1 sequence (looked up) 1: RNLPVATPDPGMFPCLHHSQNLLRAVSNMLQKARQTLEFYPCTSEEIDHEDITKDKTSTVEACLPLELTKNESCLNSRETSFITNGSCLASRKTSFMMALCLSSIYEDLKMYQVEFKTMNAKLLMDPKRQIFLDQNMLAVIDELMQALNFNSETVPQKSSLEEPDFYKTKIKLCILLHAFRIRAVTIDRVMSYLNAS
T1 sequence (looked up) 2: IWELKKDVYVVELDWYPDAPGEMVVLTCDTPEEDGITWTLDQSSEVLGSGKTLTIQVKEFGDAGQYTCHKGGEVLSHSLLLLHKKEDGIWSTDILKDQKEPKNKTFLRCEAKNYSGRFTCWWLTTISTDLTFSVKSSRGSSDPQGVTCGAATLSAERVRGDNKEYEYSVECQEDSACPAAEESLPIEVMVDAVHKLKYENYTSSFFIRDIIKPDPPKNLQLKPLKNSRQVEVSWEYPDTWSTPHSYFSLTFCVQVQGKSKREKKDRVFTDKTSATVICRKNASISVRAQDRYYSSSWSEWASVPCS


Columns and labels:
human IL-12 [1] = target: T1, human IL-12; assay: cell-based or functional assay
human IL-18 [2] = target: T2, human IL-18 (human, UniProt Q14116 37-193); assay: cell-based or functional assay
human IL-12 [3] = target: T1, human IL-12; assay: SPR (Biacore)
human IL-18 [4] = target: T2, human IL-18; assay: SPR (Biacore)

Binder | Potency (IC50, M), IL-12-induced IFN-γ production by PHA blast cells (human IL-12 [1]) [M] | Potency (IC50, M), KG-1 bioassay (human IL-18 [2]) [M] | Kd (human IL-12 [3]) [nM] | Kd (human IL-18 [4]) [nM]
DVD1812SL (DVD1812HC-SL / DVD1812LC-SL) (bispecific antibody) chain 1: not shown chain 2: EIVMTQSPATLSVSPGERATLSCRASESISSNLAWYQQKPGQAPRLFIYTASTRATDIPARFSGSGSGTEFTLTISSLQSEDFAVYYCQQYNNWPSITFGQGTRLEIKRTVAAPQSVLTQPPSVSGAPGQRVTISCSGSRSNIGSNTVKWYQQLPGTAPKLLIYYNDQRPSGVPDRFSGSKSGTSASLAITGLQAEDEADYYCQSYDRYTHPALLFGTGTKVTVLGTVAAPSVFIFPPSDEQLKSGTASVVCLLNNFYPREAKVQWKVDNALQSGNSQESVTEQDSKDSTYSLSSTLTLSKADYEKHKVYACEVTHQGLSSPVTKSFNRGEC | 3.66e-10 | 4e-11 | 1.82 | 0.191
DVD1812LL (DVD1812HC-LL / DVD1812LC-LL) (bispecific antibody) heavy: not shown light: EIVMTQSPATLSVSPGERATLSCRASESISSNLAWYQQKPGQAPRLFIYTASTRATDIPARFSGSGSGTEFTLTISSLQSEDFAVYYCQQYNNWPSITFGQGTRLEIKRTVAAPSVFIFPPQSVLTQPPSVSGAPGQRVTISCSGSRSNIGSNTVKWYQQLPGTAPKLLIYYNDQRPSGVPDRFSGSKSGTSASLAITGLQAEDEADYYCQSYDRYTHPALLFGTGTKVTVLG | 1.18e-10 | 7.8e-11 | 0.113 | 0.162
